Experimental findings from US20180333469A1 (PORTOLA PHARMACEUTICALS, published 2018) are described below.

Experiment [1] deals with T1, tissue factor pathway inhibitor (TFPI) (UniProt P10646 29-304, limits assumed).
T1 sequence (looked up): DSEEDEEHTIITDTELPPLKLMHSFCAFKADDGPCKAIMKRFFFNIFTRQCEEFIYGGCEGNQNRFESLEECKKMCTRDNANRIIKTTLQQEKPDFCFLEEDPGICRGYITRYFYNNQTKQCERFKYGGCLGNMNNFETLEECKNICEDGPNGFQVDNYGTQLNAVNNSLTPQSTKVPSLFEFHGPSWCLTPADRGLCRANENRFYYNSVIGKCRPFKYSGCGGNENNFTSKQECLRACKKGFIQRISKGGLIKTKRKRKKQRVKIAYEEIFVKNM
As to the kind of experiment: cell-based or functional assay.

In experiment [2] the target is T2, factor V (fV) (UniProt P12259 29-2224). Nature of the experiment: SPR, Biacore 3000, CM-5 chip (Prep 1). On the procedure:
(§1) A few major plasma proteins, including tissue factor pathway inhibitor (TFPI), antithrombin III (ATIII), α-2-macroglobulin, α-1-antitrypsin, factor VII (fVII), factor X (fX), prothrombin, and factor V (fV), were tested for their binding affinity to a wild-type factor Xa (fXa) and two individual preparations (Prep 1 and Prep 2) of the fXa derivative (SEQ ID NO: 3). The binding experiment was conducted with a Biacore® 3000 with the fXa derivative immobilized on a CM-5 sensor chip according to manufacturer's instruction.
For orientation: In SPR one partner is held on a chip, and binding of the other changes the refractive index at the surface.

The target in experiment [3] is T3, α-2-macroglobulin (UniProt P01023 24-1474).
T3 sequence (looked up): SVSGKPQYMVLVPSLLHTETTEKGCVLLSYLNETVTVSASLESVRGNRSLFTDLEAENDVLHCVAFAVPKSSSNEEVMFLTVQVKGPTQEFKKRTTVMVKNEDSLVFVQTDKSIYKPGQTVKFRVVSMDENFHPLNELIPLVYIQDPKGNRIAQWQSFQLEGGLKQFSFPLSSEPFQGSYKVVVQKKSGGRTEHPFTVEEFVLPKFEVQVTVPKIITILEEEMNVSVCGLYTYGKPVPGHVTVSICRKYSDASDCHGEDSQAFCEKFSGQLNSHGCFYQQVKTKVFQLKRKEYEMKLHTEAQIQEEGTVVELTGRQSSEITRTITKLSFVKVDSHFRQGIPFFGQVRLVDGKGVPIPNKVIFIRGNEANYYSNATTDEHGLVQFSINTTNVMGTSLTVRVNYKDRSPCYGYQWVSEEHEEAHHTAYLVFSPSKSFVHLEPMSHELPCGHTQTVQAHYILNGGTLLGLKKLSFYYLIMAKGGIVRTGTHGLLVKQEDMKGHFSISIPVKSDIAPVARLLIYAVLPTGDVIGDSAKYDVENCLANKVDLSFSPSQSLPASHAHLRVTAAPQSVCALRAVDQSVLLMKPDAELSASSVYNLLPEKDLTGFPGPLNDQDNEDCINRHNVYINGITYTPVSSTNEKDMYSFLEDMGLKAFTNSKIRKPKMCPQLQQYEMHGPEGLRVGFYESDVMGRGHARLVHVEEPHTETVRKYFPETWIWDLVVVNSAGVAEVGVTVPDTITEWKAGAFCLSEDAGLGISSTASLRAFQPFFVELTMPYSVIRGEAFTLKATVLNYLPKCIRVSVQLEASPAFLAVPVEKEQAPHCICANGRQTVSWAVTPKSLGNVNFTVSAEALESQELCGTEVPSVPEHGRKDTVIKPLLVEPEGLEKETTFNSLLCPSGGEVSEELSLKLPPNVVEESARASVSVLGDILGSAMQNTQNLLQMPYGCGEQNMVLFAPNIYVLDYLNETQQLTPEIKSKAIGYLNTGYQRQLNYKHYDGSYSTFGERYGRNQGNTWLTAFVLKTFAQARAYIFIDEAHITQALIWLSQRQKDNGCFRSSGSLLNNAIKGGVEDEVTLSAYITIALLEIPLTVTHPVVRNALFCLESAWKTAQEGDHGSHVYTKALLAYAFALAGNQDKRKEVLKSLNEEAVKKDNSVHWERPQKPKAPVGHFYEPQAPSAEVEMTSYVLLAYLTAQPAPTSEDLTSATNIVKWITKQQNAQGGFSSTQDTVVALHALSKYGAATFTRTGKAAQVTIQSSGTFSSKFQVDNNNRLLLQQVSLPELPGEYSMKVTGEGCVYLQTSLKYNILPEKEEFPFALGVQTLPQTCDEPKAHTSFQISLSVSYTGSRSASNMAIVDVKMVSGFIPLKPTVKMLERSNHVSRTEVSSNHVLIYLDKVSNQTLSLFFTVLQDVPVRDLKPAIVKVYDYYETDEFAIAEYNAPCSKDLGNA
Nature of the experiment: SPR, Biacore 3000, CM-5 chip (Prep 1). On the procedure:
as §1

The target in experiment [4] is T4, α-1-antitrypsin (UniProt P01009 25-418). Nature of the experiment: SPR, Biacore 3000, CM-5 chip (Prep 1). On the procedure: as §1
In experiment [5] the target is T5, factor X (fX) (UniProt P00742 41-488). Nature of the experiment: SPR, Biacore 3000, CM-5 chip (Prep 1). On the procedure:
as §1

The target of experiment [6] is T6, prothrombin (UniProt P00734 44-622). Nature of the experiment: SPR, Biacore 3000, CM-5 chip (Prep 1). On the procedure: as §1
Experiment [7] has as its target T7, factor VII (fVII) (UniProt P08709 61-466).
T7 sequence (looked up): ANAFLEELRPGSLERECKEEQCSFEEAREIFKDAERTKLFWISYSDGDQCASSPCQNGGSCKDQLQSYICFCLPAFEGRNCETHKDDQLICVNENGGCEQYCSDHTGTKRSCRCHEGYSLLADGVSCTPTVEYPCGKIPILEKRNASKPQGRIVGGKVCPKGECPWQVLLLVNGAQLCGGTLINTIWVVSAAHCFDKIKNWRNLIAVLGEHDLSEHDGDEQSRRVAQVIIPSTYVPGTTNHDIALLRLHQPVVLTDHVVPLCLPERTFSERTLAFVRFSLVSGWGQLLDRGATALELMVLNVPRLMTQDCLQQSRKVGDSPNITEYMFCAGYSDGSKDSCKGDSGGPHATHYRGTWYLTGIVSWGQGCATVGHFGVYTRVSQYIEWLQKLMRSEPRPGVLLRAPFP
As to the kind of experiment: SPR, Biacore 3000, fXa derivative immobilized on CM-5 chip. The method, then: as §1

The target in experiment [8] is T1, tissue factor pathway inhibitor (TFPI). As to the kind of experiment: Kd of fXa derivative-TFPI over Ki of TFPI-fXa, fXa chromogenic assay (FIG. 1C).
Experiment [9] shares this target. As to the kind of experiment: Kd of fXa derivative-TFPI over Ki of TFPI-fXa, fXa chromogenic assay (FIG. 1D). On the procedure: The binding kinetics were determined using three different concentrations of the fXa derivative (0, 1 nM, and 5 nM) and escalating doses of TFPI, up to about 12 nM. fXa chromogenic activity was measured following a 2 hour incubation of fXa (1 nM). Residual fXa activity was measured by cleavage of the peptidyl substrate Spectrozyme-fXa (100 μM).

Experiment [10] has the same target. As to the kind of experiment: competition in the fXa chromogenic activity assay: SEQ ID NO: 3 competes with fXa (0.5 nM) for TFPI (1.0 nM).
Experiment [11] has the same target. Nature of the experiment: competition in the fXa chromogenic activity assay: SEQ ID NO: 3 competes with fXa (1.0 nM) for TFPI (1.0 nM).
Experiment [12] concerns the target T2, factor V (fV). Nature of the experiment: SPR, Biacore 3000, CM-5 chip. The method, then: as §1
Another experiment concerns the target antithrombin III (ATIII) (UniProt P01008 33-464). Nature of the experiment: SPR, Biacore 3000, CM-5 chip. On the procedure:
as §1

Experiment [13] addresses T3, α-2-macroglobulin. Nature of the experiment: SPR, Biacore 3000, CM-5 chip. The method, then: as §1
Experiment [14] concerns the target T4, α-1-antitrypsin. As to the kind of experiment: SPR, Biacore 3000, CM-5 chip. On the procedure: as §1
The target in experiment [15] is T7, factor VII (fVII). Nature of the experiment: SPR, Biacore 3000, CM-5 chip. On the procedure: as §1
For experiment [16], the target named is T5, factor X (fX). As to the kind of experiment: SPR, Biacore 3000, CM-5 chip. On the procedure:
as §1

Experiment [17] deals with T6, prothrombin. As to the kind of experiment: SPR, Biacore 3000, CM-5 chip. The method, then:
as §1

T2 sequence (P12259 29-2224 limits assumed): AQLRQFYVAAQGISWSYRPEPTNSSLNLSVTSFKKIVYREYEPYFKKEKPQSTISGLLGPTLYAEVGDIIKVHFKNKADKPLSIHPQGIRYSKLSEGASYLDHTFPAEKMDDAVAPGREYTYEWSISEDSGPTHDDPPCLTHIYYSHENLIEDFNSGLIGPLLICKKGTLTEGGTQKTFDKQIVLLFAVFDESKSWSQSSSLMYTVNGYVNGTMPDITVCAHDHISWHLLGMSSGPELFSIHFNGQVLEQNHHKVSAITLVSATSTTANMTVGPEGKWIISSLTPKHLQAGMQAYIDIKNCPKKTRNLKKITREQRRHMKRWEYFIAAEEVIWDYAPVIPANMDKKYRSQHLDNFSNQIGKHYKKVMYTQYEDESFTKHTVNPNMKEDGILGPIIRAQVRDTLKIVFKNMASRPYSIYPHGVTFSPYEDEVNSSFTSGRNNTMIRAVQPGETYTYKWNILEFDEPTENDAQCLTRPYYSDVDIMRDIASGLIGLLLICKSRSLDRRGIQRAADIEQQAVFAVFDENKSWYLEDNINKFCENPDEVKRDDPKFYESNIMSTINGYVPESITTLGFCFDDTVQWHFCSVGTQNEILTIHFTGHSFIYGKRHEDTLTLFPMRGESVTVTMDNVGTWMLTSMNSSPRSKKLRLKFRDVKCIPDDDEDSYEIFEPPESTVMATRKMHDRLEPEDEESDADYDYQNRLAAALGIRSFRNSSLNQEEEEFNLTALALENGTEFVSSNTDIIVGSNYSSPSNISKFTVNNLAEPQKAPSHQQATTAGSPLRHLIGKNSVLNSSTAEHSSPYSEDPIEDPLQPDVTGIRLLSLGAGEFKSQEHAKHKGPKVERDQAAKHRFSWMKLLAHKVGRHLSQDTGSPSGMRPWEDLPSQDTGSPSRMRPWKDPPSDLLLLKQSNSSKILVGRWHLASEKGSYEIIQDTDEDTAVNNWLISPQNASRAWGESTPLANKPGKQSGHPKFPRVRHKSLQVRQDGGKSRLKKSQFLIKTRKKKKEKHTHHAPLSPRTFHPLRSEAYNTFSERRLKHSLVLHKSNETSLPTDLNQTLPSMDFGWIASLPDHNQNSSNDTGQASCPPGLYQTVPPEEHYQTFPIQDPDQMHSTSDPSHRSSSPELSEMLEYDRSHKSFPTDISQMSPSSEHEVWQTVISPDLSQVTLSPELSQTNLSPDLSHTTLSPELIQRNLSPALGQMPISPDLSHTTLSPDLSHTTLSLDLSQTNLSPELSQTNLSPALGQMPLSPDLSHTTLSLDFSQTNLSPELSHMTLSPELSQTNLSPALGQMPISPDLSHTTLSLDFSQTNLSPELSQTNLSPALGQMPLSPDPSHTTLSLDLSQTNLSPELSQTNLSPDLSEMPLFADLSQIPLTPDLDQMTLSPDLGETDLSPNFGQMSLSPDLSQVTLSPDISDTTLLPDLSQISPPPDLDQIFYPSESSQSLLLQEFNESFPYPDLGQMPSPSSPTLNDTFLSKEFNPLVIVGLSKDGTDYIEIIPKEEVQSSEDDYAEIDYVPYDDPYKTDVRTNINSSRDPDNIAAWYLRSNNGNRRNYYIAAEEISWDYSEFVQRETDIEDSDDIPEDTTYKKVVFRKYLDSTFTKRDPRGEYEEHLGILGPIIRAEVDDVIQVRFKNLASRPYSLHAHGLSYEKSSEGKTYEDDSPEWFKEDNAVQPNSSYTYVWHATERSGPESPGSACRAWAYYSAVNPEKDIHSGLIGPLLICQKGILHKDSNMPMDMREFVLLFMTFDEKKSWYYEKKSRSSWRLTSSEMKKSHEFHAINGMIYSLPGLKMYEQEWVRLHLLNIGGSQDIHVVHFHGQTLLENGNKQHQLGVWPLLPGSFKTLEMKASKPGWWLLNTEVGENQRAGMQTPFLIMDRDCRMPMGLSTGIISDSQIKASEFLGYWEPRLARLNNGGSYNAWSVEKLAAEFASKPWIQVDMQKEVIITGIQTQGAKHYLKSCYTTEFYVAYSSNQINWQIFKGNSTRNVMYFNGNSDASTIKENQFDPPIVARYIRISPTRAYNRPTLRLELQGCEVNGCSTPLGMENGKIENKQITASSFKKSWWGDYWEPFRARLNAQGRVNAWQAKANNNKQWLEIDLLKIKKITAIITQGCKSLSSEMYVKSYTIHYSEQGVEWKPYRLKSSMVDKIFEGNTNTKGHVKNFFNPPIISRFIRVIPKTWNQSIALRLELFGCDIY
T4 sequence (P01009 25-418 limits assumed): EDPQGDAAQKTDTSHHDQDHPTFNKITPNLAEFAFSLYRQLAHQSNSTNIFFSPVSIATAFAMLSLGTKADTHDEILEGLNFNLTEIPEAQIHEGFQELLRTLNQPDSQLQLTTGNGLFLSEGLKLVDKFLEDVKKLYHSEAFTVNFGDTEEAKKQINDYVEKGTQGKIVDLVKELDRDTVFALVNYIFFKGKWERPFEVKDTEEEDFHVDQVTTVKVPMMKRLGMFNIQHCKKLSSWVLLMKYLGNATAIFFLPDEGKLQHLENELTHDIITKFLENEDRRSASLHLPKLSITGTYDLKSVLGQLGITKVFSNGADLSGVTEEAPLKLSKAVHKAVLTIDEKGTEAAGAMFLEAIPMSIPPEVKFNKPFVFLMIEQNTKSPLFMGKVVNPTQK
Sequence of antithrombin III (ATIII) (P01008 33-464 limits assumed): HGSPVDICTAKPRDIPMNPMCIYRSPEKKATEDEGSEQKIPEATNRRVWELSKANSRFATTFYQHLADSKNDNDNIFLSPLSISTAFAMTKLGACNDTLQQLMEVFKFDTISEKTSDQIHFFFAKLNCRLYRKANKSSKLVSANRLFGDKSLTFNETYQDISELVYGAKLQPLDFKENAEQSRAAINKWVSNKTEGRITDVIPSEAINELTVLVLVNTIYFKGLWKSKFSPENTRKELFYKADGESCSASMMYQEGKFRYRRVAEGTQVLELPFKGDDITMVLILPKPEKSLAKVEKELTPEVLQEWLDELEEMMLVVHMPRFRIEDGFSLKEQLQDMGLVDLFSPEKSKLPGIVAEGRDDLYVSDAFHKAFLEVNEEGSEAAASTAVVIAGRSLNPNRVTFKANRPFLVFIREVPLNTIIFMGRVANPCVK

B1: fXa derivative (SEQ ID NO: 3) (other)
light: ANSFLFWNKYKDGDQCETSPCQNQGKCKDGLGEYTCTCLEGFEGKNCELFTRKLCSLDNGDCDQFCHEEQNSVVCSCARGYTLADNGKACIPTGPYPCGKQTLER
heavy: IVGGQECKDGECPWQALLINEENEGFCGGTILSEFYILTAAHCLYQAKRFKVRVGDRNTEQEEGGEAVHEVEVVIKHNRFTKETYDFDIAVLRLKTPITFRMNVAPACLPERDWAESTLMTQKTGIVSGFGRTHEKGRQSTRLKMLEVPYVDRNSCKLSSSFIITQNMFCAGYDTKQEDACQGDAGGPHVTRFKDTYFVTGIVSWGEGCARKGKYGIYTKVTAFLKWIDRSMKTRGLPKAKSHAPEVITSSPLK
notes: Prep 1 and Prep 2 are two preparations of the same molecule; also called fXa derivative Prep 1; fXa derivative Prep 2
As to B1, the “EC50 (read off the curve): fXa formed after 15 min by fVIIa/TF with 2.4 nM TFPI” value in [1] was roughly 5 nM. The binding result with factor V (fV) [2], in the experiment with α-2-macroglobulin [3], with α-1-antitrypsin [4], in the experiment with factor X (fX) [5] and with prothrombin [6] was “no binding” each time. This molecule also showed a Kd in the experiment with factor VII (fVII) [7] of 2780 nM. Moreover, the entries for the “Ratio (Kd/Ki)” value in experiment [8] and in [9] were 2.69 and 4.97, respectively. For the same molecule, the “EC50 (read off the curve)” value in experiment [10] and in [11] was roughly 2 nM throughout.

B2: wild-type factor Xa (fXa) (enzyme)
light: ANSFLEEMKKGHLERECMEETCSYEEAREVFEDSDKTNEFWNKYKDGDQCETSPCQNQGKCKDGLGEYTCTCLEGFEGKNCELFTRKLCSLDNGDCDQFCHEEQNSVVCSCARGYTLADNGKACIPTGPYPCGKQTLER
heavy: IVGGQECKDGECPWQALLINEENEGFCGGTILSEFYILTAAHCLYQAKRFKVRVGDRNTEQEEGGEAVHEVEVVIKHNRFTKETYDFDIAVLRLKTPITFRMNVAPACLPERDWAESTLMTQKTGIVSGFGRTHEKGRQSTRLKMLEVPYVDRNSCKLSSSFIITQNMFCAGYDTKQEDACQGDSGGPHVTRFKDTYFVTGIVSWGEGCARKGKYGIYTKVTAFLKWIDRSMKTRGLPKAKSHAPEVITSSPLK
modifications: 11 gamma-carboxyglutamic acid residues (Gla) in the Gla domain, residues 1-45 of SEQ ID NO. 1
With B2, the binding result with factor V (fV) [12], with α-2-macroglobulin [13], with α-1-antitrypsin [14], with factor X (fX) [16] and in the experiment with prothrombin [17] was “no binding” throughout. For the same molecule, the Kd is 1060 to 13200 nM in the experiment with antithrombin III (ATIII) and 2970 nM with factor VII (fVII) [15].

As usually defined, the Kd is the free concentration of one partner at which half of the binding sites on the other are occupied at equilibrium, for simple one-to-one binding. Low values mean tighter binding, high ones weaker binding. Usually EC50 (read off the curve) stands for the concentration at which the effect is half-maximal. High values mean lower potency in that assay, low ones higher potency in that assay.
